{
  "source": "paper PMC7190841",
  "about": "(Scientific Reports, 2020)",
  "key": {"P-IR(Tyr1158)": {"target": "T1, P-IR(Tyr1158) (Homo sapiens, UniProt P06213)", "T1 construct": "expressed in transfected cells; host or cells: rat L6 myoblast cells (L6hIR, generated at Novo Nordisk)", "T1 sequence (P06213 28-1370 isoform P06213-2 limits assumed)": "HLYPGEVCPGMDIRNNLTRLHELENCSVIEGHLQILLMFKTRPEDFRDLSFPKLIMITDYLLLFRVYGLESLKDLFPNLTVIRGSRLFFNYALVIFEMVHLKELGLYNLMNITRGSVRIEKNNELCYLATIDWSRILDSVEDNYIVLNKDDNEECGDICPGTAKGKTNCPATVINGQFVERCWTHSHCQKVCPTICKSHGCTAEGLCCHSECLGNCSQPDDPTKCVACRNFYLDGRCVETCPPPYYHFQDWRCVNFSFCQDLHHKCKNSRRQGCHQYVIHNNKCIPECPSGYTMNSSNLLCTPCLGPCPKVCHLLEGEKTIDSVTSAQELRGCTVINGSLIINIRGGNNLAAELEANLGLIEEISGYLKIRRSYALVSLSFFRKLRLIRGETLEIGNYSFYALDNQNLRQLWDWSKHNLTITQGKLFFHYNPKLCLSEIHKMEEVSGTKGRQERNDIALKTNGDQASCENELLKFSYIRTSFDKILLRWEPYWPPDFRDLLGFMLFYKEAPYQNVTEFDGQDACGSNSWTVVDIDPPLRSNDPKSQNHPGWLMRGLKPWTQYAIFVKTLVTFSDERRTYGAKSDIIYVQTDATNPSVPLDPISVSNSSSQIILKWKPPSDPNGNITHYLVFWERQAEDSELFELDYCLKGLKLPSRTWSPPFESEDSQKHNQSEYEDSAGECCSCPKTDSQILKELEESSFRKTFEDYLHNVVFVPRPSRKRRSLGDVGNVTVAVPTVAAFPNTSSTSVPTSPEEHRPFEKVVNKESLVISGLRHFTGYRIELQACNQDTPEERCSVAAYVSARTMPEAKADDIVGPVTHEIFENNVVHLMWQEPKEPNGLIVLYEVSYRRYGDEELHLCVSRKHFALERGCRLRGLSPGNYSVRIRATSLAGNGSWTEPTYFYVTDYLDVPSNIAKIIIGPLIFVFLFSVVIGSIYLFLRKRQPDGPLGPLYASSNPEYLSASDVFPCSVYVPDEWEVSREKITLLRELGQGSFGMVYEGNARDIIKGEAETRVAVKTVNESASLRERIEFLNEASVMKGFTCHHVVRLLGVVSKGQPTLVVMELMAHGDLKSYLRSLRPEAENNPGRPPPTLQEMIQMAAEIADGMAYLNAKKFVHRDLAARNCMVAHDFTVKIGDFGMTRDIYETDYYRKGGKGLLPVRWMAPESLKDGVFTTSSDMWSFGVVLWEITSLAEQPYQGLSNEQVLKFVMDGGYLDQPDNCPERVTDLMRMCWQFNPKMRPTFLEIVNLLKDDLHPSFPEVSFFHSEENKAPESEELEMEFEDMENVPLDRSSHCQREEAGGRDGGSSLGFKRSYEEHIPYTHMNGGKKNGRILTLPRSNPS", "T1 sequence (P06213 763-1382 partner limits assumed)": "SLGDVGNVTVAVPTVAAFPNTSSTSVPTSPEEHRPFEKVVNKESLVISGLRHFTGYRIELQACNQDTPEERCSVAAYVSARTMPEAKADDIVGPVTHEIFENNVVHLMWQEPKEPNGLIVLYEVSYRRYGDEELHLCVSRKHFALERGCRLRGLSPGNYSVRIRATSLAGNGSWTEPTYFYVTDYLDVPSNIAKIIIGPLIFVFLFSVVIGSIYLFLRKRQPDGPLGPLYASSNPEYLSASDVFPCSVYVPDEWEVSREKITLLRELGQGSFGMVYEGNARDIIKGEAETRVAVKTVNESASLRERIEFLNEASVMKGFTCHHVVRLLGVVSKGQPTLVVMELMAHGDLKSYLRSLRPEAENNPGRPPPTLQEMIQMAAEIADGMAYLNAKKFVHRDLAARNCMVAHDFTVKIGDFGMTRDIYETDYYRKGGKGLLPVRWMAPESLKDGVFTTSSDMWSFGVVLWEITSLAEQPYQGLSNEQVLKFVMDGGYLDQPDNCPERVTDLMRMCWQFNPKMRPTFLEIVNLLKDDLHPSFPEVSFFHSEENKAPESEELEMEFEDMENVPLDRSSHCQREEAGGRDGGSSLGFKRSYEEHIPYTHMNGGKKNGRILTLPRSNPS", "test": "Activation of IR in L6hIR cells in vitro, sandwich ELISA", "assay_type": "cell-based", "details": "ligands 0-1000 nM for 30 min, 0.1% human serum albumin, three replicates", "protocol": "L6hIR cells were seeded in 12-well plates and grown until 90–100% confluence in DMEM (Gibco, Invitrogen, Carlsbad, CA, USA). Cells were stimulated with increasing concentrations of ligands (0–1000 nM) for 30 min in DMEM (Gibco) medium containing 0.1% human serum albumin. Subsequently, cells were washed three times in ice-cold phosphate buffered saline (PBS) and snap-frozen by pouring liquid nitrogen into the wells. Cells were lysed in 100 µL lysis buffer (cell extraction buffer from BioSource, Invitrogen, Carlsbad, CA, USA; supplemented with 1 mmol/l 4-(2-aminoethyl)benzenesulfonyl fluoride hydrochloride, and protease inhibitor cocktail from Sigma-Aldrich).\n(§1) Fitting of dose-response curves describing thymidine-incorporation in vitro and activation of IR and IGF-1R, including calculation of EC50 values, were conducted with GraphPad Prism (GraphPad Software Inc., La Jolla, CA, USA)."}, "[1]": {"test": "Pharmacokinetics after s.c. injection in mice", "assay_type": "in vivo", "details": "mouse; for t1/2 / Cmax: mean [95% CI]; for t1/2 / tmax / Cmax: n = 15; for tmax: median; for Cmax: sparse sampling 0-240 min, population PK and non-compartment analysis", "protocol": "Pharmacokinetic (PK) parameters were estimated from the two experiments with sparse sampling (three blood samples per mouse) for 0–240 min. Initially, population PK models[25] for each compound was developed in Nonmem (Icon, Dublin, Ireland) and approximately 60 individual post-hoc concentration-time data points per mouse was subjected to non-compartment analysis."}, "[2]": {"test": "Lowering of blood glucose in mice with L6hIR xenografts", "assay_type": "in vivo, mouse", "details": "300 or 600 nmol/kg s.c., experiment D", "protocol": "Blood glucose and plasma concentrations of test compounds and endogenous mouse insulin were assessed as described previously[10]."}, "H4IIE cells": {"tested_on": "H4IIE cells", "test": "Mitogenic potency from thymidine-incorporation in H4IIE cells", "assay_type": "cell-based, rat", "details": "weighted mean [95% CI], at least three independent experiments", "protocol": "as §1\n(§2) H4IIE cells (ATCC, Manassas, VA, USA) were cultured in minimum essential medium (MEM) (Gibco) supplemented with 10% (v/v) FBS, 100 µg/ml penicillin and 100 U/ml streptomycin, 1% (v/v) MEM non-essential amino acids and 1% (v/v) pyruvate (all from Gibco)."}, "L6hIR cells": {"tested_on": "L6hIR cells", "test": "Mitogenic potency from thymidine-incorporation in L6hIR cells", "assay_type": "cell-based, rat", "details": "weighted mean [95% CI], at least three independent experiments", "protocol": "as §1, §2"}, "[3]": {"tested_on": "IR and IGF-1R in L6hIR xenografts", "test": "Acute activation of IR and IGF-1R in L6hIR xenografts in vivo", "set-up": "species or system mouse", "details": "experiment A; 300 nmol/kg s.c., single treatment, euthanized 20 min later; n = 7-8", "protocol": "Male BALB/c nude mice (CAnN.Cg-Foxn1 nu/Crl) were purchased from Charles River (Charles River Laboratories Germany, Sulzfeld, Germany) at age of seven weeks and housed five mice per cage in individually ventilated Techniplast GR 900 Seal Safe Plus cages, with unrestricted access to a complete pelleted rodent diet (Altromin 1324, Brogården, Hørsholm, Denmark) and tap water (non-chlorinated, non-acidified). In the animal room the temperature was 18–24 °C, with relative humidity at 30–70%, air change 8–15 times/h and a light-dark cycle of 12/12 h. All mice were acclimatized for 10 days before experiments were started. On day 0, all mice were injected s.c. in the right flank with 2.5 million L6hIR (six experiments) or L6 cells (one experiment), suspended in 0.1 ml PBS. On the same day treatment with vehicle or test compounds was started and continued either once or twice daily until the end of the experiment (Supplementary Table S5). […]\nL6hIR cell xenograft samples were lysed in cell extraction buffer as described previously[10]. Protein concentration of cell and xenograft lysates was assessed with Pierce BCA protein assay kit (Thermo Fisher Scientific, Hvidovre, Denmark), according to the manufacturer’s instructions."}, "[4]": {"details": "s.c., range over doses of 300 and 600 nmol/kg of HI and IX10"}},
  "data": [
    {"substance": "IGF-1: human IGF-1, reference ligand in receptor activation assays", "values": [
      {"measurement": "EC50", "setting": "P-IR(Tyr1158)", "value": 25.8, "unit": "nM"}
    ]},
    {"substance": "human insulin [HI]", "values": [
      {"measurement": "t1/2", "setting": "[1]; 300 nmol/kg s.c., experiment H", "value": "96 [85 ; 107] min"},
      {"measurement": "tmax", "setting": "[1]; 300 nmol/kg s.c., experiment H", "value": 11, "unit": "min"},
      {"measurement": "Cmax", "setting": "[1]; 300 nmol/kg s.c., experiment H", "value": "725.7 [654.0 ; 797.4] nmol/l"},
      {"measurement": "t1/2", "setting": "[1]; 600 nmol/kg s.c., experiment I", "value": "52 [48 ; 56] min"},
      {"measurement": "tmax", "setting": "[1]; 600 nmol/kg s.c., experiment I", "value": 17, "unit": "min"},
      {"measurement": "Cmax", "setting": "[1]; 600 nmol/kg s.c., experiment I", "value": "812.5 [761.7 ; 863.4] nmol/l"},
      {"measurement": "elimination half-life", "setting": "[1]; [4]", "value": "60 to 90", "unit": "min"},
      {"measurement": "maximum plasma concentration", "setting": "[1]; [4]", "value": "500 to 850", "unit": "nmol/L"},
      {"measurement": "time of maximum plasma concentration after s.c. injection", "setting": "[1]; [4]", "value": "11 to 17", "unit": "min"},
      {"measurement": "Duration of decreased blood glucose", "setting": "[2]", "value": "4 to 6", "unit": "h"},
      {"measurement": "mitogenic potency H4IIE cells (% of HI)", "setting": "H4IIE cells", "value": "100 % of HI"},
      {"measurement": "mitogenic potency L6hIR cells (% of HI)", "setting": "L6hIR cells", "value": "100 % of HI"},
      {"measurement": "Activation of IR and IGF-1R in L6hIR xenografts in vivo", "setting": "[3]", "value": "acute activation of IR and IGF-1R"}
    ]}
  ]
}
